According to article PMC7826282:

Molecular target: 3xFLAG-FL-NOPCHAP1 (human) (UniProt Q8N5I9)
Experiment: co-IP

Chain of RL-NOP56-WT (O00567 whole entry): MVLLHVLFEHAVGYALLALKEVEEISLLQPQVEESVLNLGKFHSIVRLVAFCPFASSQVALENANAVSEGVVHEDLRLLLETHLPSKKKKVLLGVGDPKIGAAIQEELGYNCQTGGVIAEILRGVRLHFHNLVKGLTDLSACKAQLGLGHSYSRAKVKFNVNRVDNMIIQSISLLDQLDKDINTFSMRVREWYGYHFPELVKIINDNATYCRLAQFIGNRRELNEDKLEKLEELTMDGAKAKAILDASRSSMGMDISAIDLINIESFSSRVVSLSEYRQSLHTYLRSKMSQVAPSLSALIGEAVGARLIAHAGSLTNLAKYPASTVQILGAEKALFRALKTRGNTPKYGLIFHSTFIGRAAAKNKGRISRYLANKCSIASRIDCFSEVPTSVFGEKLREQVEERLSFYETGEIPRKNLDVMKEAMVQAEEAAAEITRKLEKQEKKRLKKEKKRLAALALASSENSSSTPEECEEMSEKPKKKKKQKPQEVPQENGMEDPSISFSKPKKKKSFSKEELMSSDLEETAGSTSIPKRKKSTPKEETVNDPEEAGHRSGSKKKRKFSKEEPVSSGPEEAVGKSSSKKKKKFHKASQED
Chain of 3xFLAG-FL-NOPCHAP1 (human) (Q8N5I9 whole entry): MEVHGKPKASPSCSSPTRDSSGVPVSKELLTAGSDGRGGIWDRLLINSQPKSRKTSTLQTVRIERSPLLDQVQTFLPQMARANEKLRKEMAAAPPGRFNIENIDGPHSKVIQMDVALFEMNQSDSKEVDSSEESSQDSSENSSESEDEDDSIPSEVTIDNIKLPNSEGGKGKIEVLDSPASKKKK

co-IP efficiency: < 0.05%
Substance: RL-NOP56-WT (from UniProt O00567 1-594) (natural protein)
